# According to paper doi:10.1101/2024.10.14.618219:
# Target: microtubules polymerized from porcine tubulin (porcine) (UniProt Q2XVP4)
# Assay: single-molecule TIRF microscopy on microtubules
# Chain of Kif3A^ΔC103-Kif3B (Q9Y496 1-596, stated change not applied): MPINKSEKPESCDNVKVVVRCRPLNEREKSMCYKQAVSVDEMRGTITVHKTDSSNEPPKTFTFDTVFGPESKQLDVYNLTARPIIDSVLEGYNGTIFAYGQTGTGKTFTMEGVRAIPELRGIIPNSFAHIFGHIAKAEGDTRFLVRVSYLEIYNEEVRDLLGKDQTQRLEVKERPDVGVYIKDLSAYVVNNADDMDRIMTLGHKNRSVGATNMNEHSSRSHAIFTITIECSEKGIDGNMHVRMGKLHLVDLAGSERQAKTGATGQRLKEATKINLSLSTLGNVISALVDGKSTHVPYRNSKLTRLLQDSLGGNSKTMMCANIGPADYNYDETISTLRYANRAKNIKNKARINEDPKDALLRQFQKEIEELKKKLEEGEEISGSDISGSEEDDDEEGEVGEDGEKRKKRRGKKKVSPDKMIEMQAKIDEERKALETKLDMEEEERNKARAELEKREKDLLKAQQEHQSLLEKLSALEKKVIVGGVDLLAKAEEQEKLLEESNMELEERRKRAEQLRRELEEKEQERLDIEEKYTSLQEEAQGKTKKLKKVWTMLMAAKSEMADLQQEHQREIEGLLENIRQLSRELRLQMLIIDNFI
# Chain of Kif3A^ΔC103-Kif3B (O15066 whole entry, stated change not applied): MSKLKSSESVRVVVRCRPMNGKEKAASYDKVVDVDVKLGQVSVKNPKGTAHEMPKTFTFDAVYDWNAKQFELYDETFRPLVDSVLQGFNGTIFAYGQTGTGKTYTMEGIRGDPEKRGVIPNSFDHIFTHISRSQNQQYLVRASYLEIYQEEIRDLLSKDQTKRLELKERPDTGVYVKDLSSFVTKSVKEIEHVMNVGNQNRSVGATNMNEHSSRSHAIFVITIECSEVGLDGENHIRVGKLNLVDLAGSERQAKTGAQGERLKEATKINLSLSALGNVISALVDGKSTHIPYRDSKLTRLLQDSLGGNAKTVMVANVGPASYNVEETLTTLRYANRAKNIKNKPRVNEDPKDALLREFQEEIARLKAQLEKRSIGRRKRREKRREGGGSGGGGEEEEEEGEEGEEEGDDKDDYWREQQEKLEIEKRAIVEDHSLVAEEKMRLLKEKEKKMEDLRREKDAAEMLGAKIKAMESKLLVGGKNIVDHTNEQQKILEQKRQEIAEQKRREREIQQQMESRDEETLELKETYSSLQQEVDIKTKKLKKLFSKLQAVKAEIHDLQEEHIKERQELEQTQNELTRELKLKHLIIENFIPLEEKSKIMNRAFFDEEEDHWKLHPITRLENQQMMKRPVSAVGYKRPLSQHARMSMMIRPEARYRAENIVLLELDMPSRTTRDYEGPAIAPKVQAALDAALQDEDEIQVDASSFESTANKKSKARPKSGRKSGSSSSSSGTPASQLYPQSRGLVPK
# Chain of Kif3A^ΔC89-Kif3B (Q9Y496 1-610, stated change not applied): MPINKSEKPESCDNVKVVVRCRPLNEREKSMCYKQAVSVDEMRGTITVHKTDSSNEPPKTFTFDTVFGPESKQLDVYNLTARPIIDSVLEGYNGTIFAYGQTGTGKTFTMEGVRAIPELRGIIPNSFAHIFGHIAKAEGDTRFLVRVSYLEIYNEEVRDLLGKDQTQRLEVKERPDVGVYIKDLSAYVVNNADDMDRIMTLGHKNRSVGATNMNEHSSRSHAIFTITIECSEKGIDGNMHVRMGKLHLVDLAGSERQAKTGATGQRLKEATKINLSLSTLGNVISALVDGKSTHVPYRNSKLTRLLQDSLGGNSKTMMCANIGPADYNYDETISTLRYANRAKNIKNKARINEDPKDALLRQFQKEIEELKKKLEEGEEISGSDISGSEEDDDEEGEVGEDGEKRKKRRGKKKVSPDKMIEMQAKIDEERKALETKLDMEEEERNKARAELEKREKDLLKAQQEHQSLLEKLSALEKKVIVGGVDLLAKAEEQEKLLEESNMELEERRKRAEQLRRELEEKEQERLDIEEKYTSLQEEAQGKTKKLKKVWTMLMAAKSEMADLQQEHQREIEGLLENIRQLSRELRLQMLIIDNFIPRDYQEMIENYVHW
# Chain of Kif3A^ΔC89-Kif3B (O15066 whole entry, stated change not applied): as the sequence (O15066 whole entry, stated change not applied) above
substance,measurement,value
Kif3A^ΔC89-Kif3B (from UniProt Q9Y496 1-610; O15066 1-747) (complex),landing rate (μm^-1 nM^-1 min^-1),0.6
Kif3A^ΔC103-Kif3B (from UniProt Q9Y496 1-596; O15066 1-747) (complex),landing rate (μm^-1 nM^-1 min^-1),0.6
